# Results taken from the nanobody polyreactivity screen of Harvey et al. (2022).
# Assay: yeast display, Sf9 membrane polyspecificity reagent, FACS + sequencing; frameworks hold sequencing errors
# How it was run: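 Using colony PCR, genes from sorted yeast display clones were amplified, then sequenced on MiSeq at 2 × 250 and filtered by CDR length. The clones had been stained with 10% biotinylated, detergent-solubilized Sf9 membrane reagent for 1 hour at 4 °C and sorted by FACS into low and high (top ~1%) gates on anti-HA and streptavidin fluorescence. Polyreactivity labels come from the gate of origin.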
row,Sequence,polyreactivity (PSR sort gate)
1,QVQLVESGGGLVQAGGSLRLSCDASGFIIARNAMGWYRQAPGKERELVAAISASGGRTYYADSVKGRFTISRDNAKNTVYLQMNSLKPEDTAVYYCAARRDGRSGSYNYWGQGTQVTVSS,high polyreactivity
2,QVQLVESGGGLVQAGGSLRLSCDASGFISRYAMGWYRQAPGKERELVAAINRSGGRTYYADSVKGRFTISRDNAKNTVYLQMNSLTPEDTAVYYCAALRGRYYGVLGEYWGQCTQVTVSS,high polyreactivity
3,QVQLVESGGGLVQAGGSLRLSCDASGFTFATYAMGRYRQAPGKERELVAAISSGGYTYYADSVKGRFTISRDNAKNTVYLQMNSLKPEDTGVYYCNVSIGLFYLWYFNRYYYWGQGTQVTVSS,high polyreactivity
4,QVQLVESGGGLVQAGGSLRLSCDASGFTFKTNAMGWYRQAPGKERELVAAINRSGGSTYYADSVKGRFTISRDNAKNTVYLQMNSLKPEDTAVYYCATRSYLPGVRRGYDYWGQGTQVTVSS,high polyreactivity
5,QVQLVESGGGLVQAGGSLRLSCDASGFTLAWNARGWSRQAPRKERELVATISRSGSSTSYADSVKGRFTISRDNAKNTVYLQMNSLKPEDTAVYYCAKSGRYGFWGQGTQVTVSS,high polyreactivity
6,QVQLVESGGGLVQAGGSLRLSCDASGGTFVHNAMGWYRQAPGKERELVAAISWSGGSTYYADSVKGRFTISRDNATNTVYLQMNSLKPEDTAVNYCAADLPDYKDIFDSWGQGTQVTLSS,low polyreactivity
7,QVQLVESGGGLVQAGGSLRLSCDASGIIFFIYTMGWYRQAPGKERELVAVITRGGRTKYADSVKGRLTISRDNAKNTVFLQMNRLNPEDNAVYYCAAKGSRSYYWGQGTHVTVSS,low polyreactivity
8,QVQLVESGGGLVQAGGSLRLSCDASGIIFPYYAMGWYRQAPGKERELVAGISSSGGITYADSVKGRFTISRDNAKNTVYLQMNSLNPEDTAVYYCNAEYQWLEYDYWGQGTQVTVSS,low polyreactivity
9,QVQLVESGGGLVQAGGSLRLSCDASGIIFYYNAMGWYRQAPGKERELVDRINSGGSTNYADSVKGRFTISRDNAKNTVDFQMTSMKPEDTAVYYCAARVRRWSYYGALFEYWGQGTQVTVSS,low polyreactivity
10,QVQLVESGGGLVQAGGSLRLSCDASGITIRLYGMGWYRQAPGTERELVATITRDGRTYYADSVKGRFTISRDNAKNTVYLQMNSLKPEDTGVYYCARPARYSYGDGYWGQGTEVTVSS,low polyreactivity
11,QVQLVESGGGLVQAGGSLRLSCDASGLTFDQYAMGWYRQGPGKERELVAAISGSDSTYYADSVKGRFTISRDNAKNTVYLQMNSLKPEDTAVYYCAASGDYVNIITGERFDARLYDYWGQGTQVTVSS,low polyreactivity
12,QVQLVESGGGLVQAGGSLRLSCDASGNIFSDYTMGWYRQAPGKERELVAAISGDGGTTYYADSVKGRFTISRDNAKNTVYLQMNSLNPEDTAVYYCAADGYYDAYDQFFIVYYEYDYWGQGTQVTVSS,low polyreactivity
13,QVQLVESGGGLVQAGGSLRLSCDASGNIFSWNTMGWYRKAPGKEWELVAAITFRVTRTFYADSVKGRFTISRDNAKNTVYFLMNSLNPEDTAVYYCAARYYYSYSLGYDYWGQGTQVTVSS,high polyreactivity
14,QVQLVESGGGLVQAGGSLRLSCDASGNTFLYNTMGWYRQAPGKEREFVAAISGSGGSTYYADSVKGRFTISRDNAKYTVYLQMNSLKPEDTAVYYCNALWRRRKYDYWGEGTQVTVSS,high polyreactivity
15,QVQLVESGGGLVQAGGSLRLSCDASGNTFRGYAMGWYRQAPGKERELVAAITSGGRTYYADSVKGRFTISRDNAKNTVYLQMNSLKPEDTAVYYCNAVLGRYVTYNYWGQGTQVTVSS,high polyreactivity
16,QVQLVESGGGLVQAGGSLRLSCDASGRIFAYYTMGWNRQAPGKERELVAAINQSGGSTYYADSVKGRITISRDNAKNTDYLQMNILKPEDTAVYYCAAKRYSMYARRYAYVYWGQVTQVTVSS,low polyreactivity
17,QVQLVESGGGLVQAGGSLRLSCDASGRIFHGNAMGWYRQAPGKEREFVAAITYGGGSTYYADSVKGRFTISRDNAKNTVYLQMNSLKPEDTAVYYCNARGARSNGVRGYYSKLNYWGQGTQVTVSS,high polyreactivity
